From PMC6442233, “SAR and molecular mechanism studies of monoamine oxidase inhibition by selected chalcone analogs” (Journal of Enzyme Inhibition and Medicinal Chemistry, 2019)

B1: human MAO-B (Homo sapiens) (protein)
chain: MSNKCDVVVVGGGISGMAAAKLLHDSGLNVVVLEARDRVGGRTYTLRNQKVKYVDLGGSYVGPTQNRILRLAKELGLETYKVNEVERLIHHVKGKSYPFRGPFPPVWNPITYLDHNNFWRTMDDMGREIPSDAPWKAPLAEEWDNMTMKELLDKLCWTESAKQLATLFVNLCVTAETHEVSALWFLWYVKQCGGTTRIISTTNGGQERKFVGGSGQVSERIMDLLGDRVKLERPVIYIDQTRENVLVETLNHEMYEAKYVISAIPPTLGMKIHFNPPLPMMRNQMITRVPLGSVIKCIVYYKEPFWRKKDYCGTMIIDGEEAPVAYTLDDTKPEGNYAAIMGFILAHKARKLARLTKEERLKKLCELYAKVLGSLEALEPVHYEEKNWCEEQYSGGCYTTYFPPGILTQYGRVLRQPVDRIYFAGTETATHWSGYMEGAVEAGERAAREILHAMGKIPEDEIWQSEPESVDVPAQPITTTFLERHLPSVPGLLRLIGLTTIFSATALGFLAHKRGLLVRV
notes: purchased Sigma-Aldrich
B2: human MAO-A (Homo sapiens) (protein)
chain: MENQEKASIAGHMFDVVVIGGGISGLSAAKLLTEYGVSVLVLEARDRVGGRTYTIRNEHVDYVDVGGAYVGPTQNRILRLSKELGIETYKVNVSERLVQYVKGKTYPFRGAFPPVWNPIAYLDYNNLWRTIDNMGKEIPTDAPWEAQHADKWDKMTMKELIDKICWTKTARRFAYLFVNINVTSEPHEVSALWFLWYVKQCGGTTRIFSVTNGGQERKFVGGSGQVSERIMDLLGDQVKLNHPVTHVDQSSDNIIIETLNHEHYECKYVINAIPPTLTAKIHFRPELPAERNQLIQRLPMGAVIKCMMYYKEAFWKKKDYCGCMIIEDEDAPISITLDDTKPDGSLPAIMGFILARKADRLAKLHKEIRKKKICELYAKVLGSQEALHPVHYEEKNWCEEQYSGGCYTAYFPPGIMTQYGRVIRQPVGRIFFAGTETATKWSGYMEGAVEAGERAAREVLNGLGKVTEKDIWVQEPESKDVPAVEITHTFWERNLPSVSGLLKIIGFSTSVTALGFVLYKYKLLPRS
notes: purchased Sigma-Aldrich

Legend:
[1] = substrate: CN1CC=C(c2cccn2C)CC1; assay: Spectrophotometric MAO-B assay with MMTP as substrate; assay type: biochemical, human; conditions: other: MMTP as substrate; 37.0 °C
[2] = substrate: CN1CC=C(c2cccn2C)CC1; assay: Spectrophotometric MAO-A assay with MMTP as substrate; assay type: biochemical, human; conditions: other: MMTP as substrate; 37.0 °C

Protein | Km [1] [µM] | Km [2] [µM]
B1 | 101 | –
B2 | – | 88
